Assay results: article PMC4070910, “Cathepsin S Signals via PAR2 and Generates a Novel Tethered Ligand Receptor Agonist” (PLoS ONE, 2014)
Entries after “also recorded” stand apart in the source; their conditions may differ.

Experiments:
cathepsin S = assay: Cathepsin S digestion of the human PAR2 N-terminal peptide (LC/MS/MS); assay type: biochemical; conditions: cathepsin S 1 µM, pH 7.0, 37°C, 20 minutes; MS/MS sequencing
Protocol: Recombinant human cathepsin S was produced as follows. The human cathepsin S proprotein coding region was isolated by PCR using the forward and reverse primers […] CCTG and […] and a template of plasmid DNA containing the entire coding sequence of human cathepsin S. The PCR product was cut with Nco I and Xho I, and cloned into the pTYB4 expression vector from New England Biolabs for expression in E.coli. Cells were grown in LB medium induced with 0.3 mM IPTG, harvested by centrifugation, resuspended in lysis buffer A (0.5 M NaCl, 0.05 M Tris, 5 mM EDTA, pH 8.0) and lysed in a French press. The lysate was centrifuged and the protein was found predominantly in inclusion bodies which were dissolved in buffer B (10 mM DTT and 8 M urea), and refolded in the presence of buffer B containing 0.7 M L-arginine, 0.01 M glutathione, 0.001 M glutathione disulfide, and 0.005 M EDTA as described. […] The specific activity of cathepsin S was assayed using Z-VVR-AMC in fluorimetric and Z-FR-pNA in colorimetric assays[22] and determined to be 10,000 mU/mg protein.
A peptide comprising the N-terminus of PAR2, […], was dissolved in 50 mM Tris, pH 7.0, 0.1 M NaCl, 0.1 mM EDTA, and 0.01% Tween-20 to a concentration of 100 mM. […] The reaction samples were analyzed by the Harvard Microchemistry & Proteomics Analysis Facility (Cambridge, MA). […]

PAR2 = conditions: proteases expressed in the skin; cited from earlier work
From the text: PAR2 signaling has been implicated in the development of inflammatory and bowel diseases, asthma, itch and pain. The receptor is expressed on many types of cells including keratinocytes, sensory neurons, fibroblasts, endothelial cells, and inflammatory cells, [3]. Consistent with this broad expression, PAR2 is involved in numerous physiologic and pathophysiologic processes in response to both endogenous and exogenous proteases.

B1: cathepsin S: Recombinant human cathepsin S, cysteine protease, expressed in E.coli, refolded and activated (protein, UniProt P25774 115-331, looked up)
Cathepsin S: LPDSVDWREKGCVTEVKYQGSCGACWAFSAVGALEAQLKLKTGKLVSLSAQNLVDCSTEKYGNKGCNGGFMTTAFQYIIDNKGIDSDASYPYKAMDQKCQYDSKYRAATCSKYTELPYGREDVLKEAVANKGPVSVGVDARHPSFFLYRSGVYYEPSCTQNVNHGVLVVGYGDLNGKEYWLVKNSWGHNFGEEGYIRMARNKGNHCGIASFPSYPEI
Cathepsin S
  cleavage points (in words): resulted in several cleavage points; also recorded: most frequent after glycine followed by leucine
PAR2
  PAR2 activation (in words): activated
